T1: SIX6OS1N (human SIX6OS1 amino acids 1 to 67) (human, UniProt Q8N1H7 1-67)
T1 construct: Protein SIX6OS1, human, amino acids 1 to 67; also called SIX6OS1 1–67; source: E. coli BL21(DE3), co-expressed with SYCE1 constructs, purified as complex (MBP removed by TEV); not shown: MBP, N-terminal, cleaved
T1 sequence (looked up): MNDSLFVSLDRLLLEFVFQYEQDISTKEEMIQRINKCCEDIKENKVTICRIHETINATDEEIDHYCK


Tests used:
[1] = target: the molecule itself; assay: SEC-MALS; 5 to 20 mg/ml in 20 mM tris (pH 8.0), 150 mM KCl, 2 mM DTT; Superdex 200 Increase 10/300 GL at 0.5 ml/min
[2] = target: T1, SIX6OS1N (human SIX6OS1 amino acids 1 …); assay: as above; conditions: both partners purified

| Binder | binding result [1] | stoichiometry N [2] | stoichiometry N [1] |
| --- | --- | --- | --- |
| SYCE1core (human SYCE1 amino acids 25 to 179) (domain or fragment, UniProt Q8N0S2 25-179, looked up, Synaptonemal complex central element protein 1 (SYCE1), human, amino acids 25 to 179, numbers relative to the canonical 351-amino acid isoform; also called SYCE1 structural core; SYCE1 25–179; source: co-expressed with SIX6OS1N for the complex) GQDTSSQKIEDLMEMVQKLQKVGSLEPRVEVLINRINEVQQAKKKANKDLGEARTICEALQKELDSLHGEKVHLKEILSKKQETLRILRLHCQEKESEAHRKHTMLQECKERISALNLQIEEEKNKQRQLRLAFEEQLEDLMGQHKDLWDFHMPE | binds | 1 |  |
| SYCE1POF (human SYCE1 amino acids 1 to 240, truncated product of the POF mutation c.613C>T, p.Gln241*) (domain or fragment, UniProt Q8N0S2 1-240, looked up, SYCE1, human, amino acids 1 to 240, relative to the canonical 351-amino acid isoform; product of the premature stop codon p.Gln241*; The purified material held about equal amounts of the full protein and a degradation product; source: also co-expressed with SIX6OS1N) MAGRSLTSKAEPTAGAVDRAEKAGGQDTSSQKIEDLMEMVQKLQKVGSLEPRVEVLINRINEVQQAKKKANKDLGEARTICEALQKELDSLHGEKVHLKEILSKKQETLRILRLHCQEKESEAHRKHTMLQECKERISALNLQIEEEKNKQRQLRLAFEEQLEDLMGQHKDLWDFHMPERLAKEICALDSSKEQLLKEEKLVKATLEDVKHQLCSLCGAEGPSTLDEGLFLRSQEAAATV |  | 1 | 2 |
| full-length SYCE1 (human) (natural protein, UniProt Q8N0S2 1-351, looked up, SYCE1, human, full length; canonical 351-amino acid isoform; source: E. coli BL21(DE3), purified; co-expressed with SIX6OS1N for the complex) MAGRSLTSKAEPTAGAVDRAEKAGGQDTSSQKIEDLMEMVQKLQKVGSLEPRVEVLINRINEVQQAKKKANKDLGEARTICEALQKELDSLHGEKVHLKEILSKKQETLRILRLHCQEKESEAHRKHTMLQECKERISALNLQIEEEKNKQRQLRLAFEEQLEDLMGQHKDLWDFHMPERLAKEICALDSSKEQLLKEEKLVKATLEDVKHQLCSLCGAEGPSTLDEGLFLRSQEAAATVQLFQEEHRKAEELLAAAAQRHQQLQQKCQQQQQKRQRLKEELEKHGMQVPAQAQSTQEEEAGPGDVASPKPLKGERPGAAHQAGPDVLIGQEDTLHPDLSPRGFQEIKELF |  | 1 |  |
